Test results taken from patent US20130323248A1.
pEC50, pIC50, pKd: −log10 of the molar value.

Experiments:
[1] = molecular target: Recombinant Human DLL4 (human) (UniProt Q9NR61); test: Biacore SPR
[2] = molecular target: human DLL-4 expressed on the surface of CHO-K1 cells (CHO-DLL-4 cells) (human) (UniProt Q9NR61); test: flow cytometry competition; 20 ug/ml FITC-rhNotch-1 on CHO-DLL-4 cells, increasing antibody concentrations
[3] = molecular target: human DLL-4 expressed on the surface of CHO-K1 cells (CHO-DLL-4 cells) (human) (UniProt Q9NR61); test: flow cytometry (HTFC) on CHO-K1 cells stably expressing DLL-4

21M18
Ka [1]: 5.86e+08 M⁻¹
pKd [1]: 8.77

anti-DLL-4 antibody OMP21M18 (Oncomed)
pIC50 [2]: 8.76
pEC50 [3]: 8.77
